Test results: patent US20220267415A1 (University of Texas, published 2022)
“And” between values parts separate entries of the source, which are not always exact repeats. Identical values can stand only once. Like-named read-outs stand apart in the source and are kept apart here.

Legend:
[1] = molecular target: T1, recombinant SARS-CoV-2 Receptor Binding Domain (RBD) with a his tag (ATUM, Cat. 65639.1.a) (SARS-CoV-2, UniProt P0DTC2 319-541); experiment: ELISA on coated RBD-his
[2] = molecular target: T2, SARS-CoV-2 spike protein, wild type, on live virus (SARS-CoV-2-mNG / USA-WA1/2020) (SARS-CoV-2, UniProt P0DTC2 13-1273); experiment: cell-based or functional assay
[3] = molecular target: T2, SARS-CoV-2 spike protein, wild type, on …; experiment: cell-based or functional assay; remark: listed apart in the source
[4] = molecular target: T2, SARS-CoV-2 spike protein, wild type, on …; experiment: cell-based or functional assay; remark: listed apart in the source
[5] = molecular target: T2, SARS-CoV-2 spike protein, wild type, on …; experiment: cell-based or functional assay; remark: listed apart in the source
[6] = molecular target: T2, SARS-CoV-2 spike protein, wild type, on …; experiment: cell-based or functional assay; remark: listed apart in the source
[7] = molecular target: T1, recombinant SARS-CoV-2 Receptor Binding …
[8] = molecular target: T2, SARS-CoV-2 spike protein, wild type, on …; experiment: cell-based or functional assay; remark: listed apart in the source
[9] = molecular target: T1, recombinant SARS-CoV-2 Receptor Binding …; remark: listed apart in the source
[10] = molecular target: T3, recombinant Spike protein (Sino Biologicals Cat #40589-V08B1) (SARS-CoV-2, UniProt P0DTC2 13-1213); experiment: BLI (Octet), avidity to spike
[11] = molecular target: T3, recombinant Spike protein (Sino …); experiment: ELISA on coated recombinant spike
[12] = molecular target: T3, recombinant Spike protein (Sino …); experiment: BLI (Octet), His-tagged S on Ni-NTA sensor, avidity

B1: anti-SARS-CoV2-26 IgA1 (antibody)
VH: not shown
VL: QSALTQPPSASGTPGQRVTISCSGSSSNIGSNSVNWYQQVPGTAPKLLIYANDHRPSGVPDRFSGSKSGTSASLAISGLQSEDEADYYCAAWDNSLKGVVFGGGTKVTVL
chain: not shown
Work on B1 yielded an EC50 [1] of 1.8 nM.

B2: anti-SARS-CoV2-26 IgA2m2 (antibody)
VH: not shown
VL: B1 VL
chain: not shown
B2 was tested, and the EC50 [1] was 38 nM.

B3: anti-SARS-CoV2-14 IgM (full lambda light chain) (antibody)
heavy: EVQLQQSGPGLVKPSQTLSLTCAISGDSVSSNSAAWNWIRQSPSRGLEWLGRTYYRSKWYNDYAVSVKSRITINPDTSKNQFSLQLNSVTPEDTAVYYCAREEQQLVHDYYYYGMDVWGQGTMVTVSSGSASAPTLFPLVSCENSPSDTSSVAVGCLAQDFLPDSITFSWKYKNNSDISSTRGFPSVLRGGKYAATSQVLLPSKDVMQGTDEHVVCKVQHPNGNKEKNVPLPVIAELPPKVSVFVPPRDGFFGNPRKSKLICQATGFSPRQIQVSWLREGKQVGSGVTTDQVQAEAKESGPTTYKVTSTLTIKESDWLSQSMFTCRVDHRGLTFQQNASSMCVPDQDTAIRVFAIPPSFASIFLTKSTKLTCLVTDLTTYDSVTISWTRQNGEAVKTHTNISESHPNATFSAVGEASICEDDWNSGERFTCTVTHTDLPSPLKQTISRPKGVALHRPDVYLLPPAREQLNLRESATITCLVTGFSPADVFVQWMQRGQPLSPEKYVTSAPMPEPQAPGRYFAHSILTVSEEEWNTGETYTCVVAHEALPNRVTERTVDKSTGKPTLYNVSLVMSDTAGTCY
light: QAVVTQPASVSGSPGQSITISCTGTSSDIGAYNYISWYQQHPGKAPKLIIYEVSNRPSGISYRFSGSKSGNTASLTISGLQAEDEANYYCSSYAGSISFGGGTKVTVLGQPKAAPSVTLFPPSSEELQANKATLVCLISDFYPGAVTVAWKADSSPVKAGVETTTPSKQSNNKYAASSYLSLTPEQWKSHRSYSCQVTHEGSTVEKTVAPTECS
chain: not shown
In the case of B3, the “Fold-Increase in potency of IgM over IgG” value [2] is reported as 46 fold, the “Neutralization EC50 (PRNT)” value [2] is reported as 0.011 µg/mL and the “Fold-Increase in potency of IgM over IgG” value [3] is reported as 61 fold. For the same binder, the “Neutralization EC50 (PRNT)” value [3] was 0.0052 µg/mL and the “Neutralization EC50” value [4] was 0.0046 µg/mL.

B4: anti-SARS-CoV2-06 IgM (lambda-VL-kappa-CL hybrid light chain) (antibody)
VH: QVELQESGPGLVKPSGTLSLTCAVSGGSISSNNWWTWVRQPPGKGLEWIGEIHHSGGTNYNPSLKSRVTMSVDKSKNQFSLNLYSVTAADTAVYYCTRDRAGGTYSGFDFWGQGTLVTVSS
VL: QAVVTQPASVSGSPGQSITISCTGTSSDVGGYNYVSWYQQHPGKAPKLMIYDVSNRPSGVSNRFSGSKSGNTASLTISGLQAEDEADYYCSSYTSSSTVVFGGGTKVTVL
chain: not shown
With B4 the “EC50 (neutralization of live SARS-CoV-2-mNG)” value [5] was 0.06 µg/ml and 0.067 nM, the “Fold change of neutralization EC50 in nM (IgM-06 against IgG-06)” value [5] was 14.9 fold and the “Fold change of neutralization EC50 in µg/ml (IgM-06 against IgG-06)” value [5] was 2.5 fold. For the same binder, the “Neutralization EC50” value [6] was 0.059 µg/mL.

B5: anti-SARS-CoV2-06 IgG (lambda-VL-kappa-CL hybrid light chain) (antibody, V domains shown)
VH: B4 VH
VL: B4 VL
In the case of B5, the “EC50 (neutralization of live SARS-CoV-2-mNG)” value [5] is reported as 0.15 µg/ml and 1 nM and the “Neutralization EC50” value [6] is reported as 0.22 µg/mL.

B6: anti-SARS-CoV2-16 IgM (antibody)
VH: QVQLHQWGAGLLKPSETLSRTCAVYGGSFSGYYWTWIRQAPGKGLEWIGEINHGGSTRYNPSLESRVSISVDTSKKQFSLELRSVTAADTAIYYCARGYDTNWYGDGYNWFDPWDRGTLVTVSS
VL: QAVVTQPPSVSGTPGQRVTISCSGSSSSIGSNTVHWYQHLPGTAPKLLMYNNNERPSGVPARFSGSKSGTSASLVITGLQADDEAEYYCQSYDTGLSGHVFGSGTELTVL
chain: not shown
B6 was tested, and the “EC50 (read off the curve)” value [7] was ~0.3 nM and the EC50 [1] was 0.3 nM.

B7: anti-SARS-CoV2-16 IgA1 (antibody)
VH: B6 VH
VL: B6 VL
chain: not shown
B7 was tested, and the “EC50 (read off the curve)” value [7] was ~0.5 nM and the EC50 [1] was 0.6 nM.

B8: anti-SARS-CoV2-16 IgA2m2 (antibody)
VH: B6 VH
VL: B6 VL
chain: not shown
With B8 the “EC50 (read off the curve)” value [7] was ~0.6 nM and the EC50 [1] was 0.6 nM.

B9: anti-SARS-CoV2-09 IgA1 (antibody)
VH: B6 VH
VL: QSALTQDPSVSVALGQTVRITCQGDSLRGSFASWYRQKPGQAPVLVIFGINNRPSGVPDRFSGSSSGNTASLTITGAQAEDEADYYCNSRESNSNRILFGGGTKVTVL
chain: not shown
With B9 the EC50 [1] was 1 nM.

B10: anti-SARS-CoV2-09 IgA2m2 (antibody)
VH: B6 VH
VL: B9 VL
chain: not shown
B10 showed an EC50 [1] of 1.4 nM.

B11: anti-SARS-CoV2-14 IgG (lambda-VL-kappa-CL hybrid light chain) (antibody, V domains shown)
VH: EVQLQQSGPGLVKPSQTLSLTCAISGDSVSSNSAAWNWIRQSPSRGLEWLGRTYYRSKWYNDYAVSVKSRITINPDTSKNQFSLQLNSVTPEDTAVYYCAREEQQLVHDYYYYGMDVWGQGTMVTVSS
VL: QAVVTQPASVSGSPGQSITISCTGTSSDIGAYNYISWYQQHPGKAPKLIIYEVSNRPSGISYRFSGSKSGNTASLTISGLQAEDEANYYCSSYAGSISFGGGTKVTVL
For B11, the “EC50 (neutralization of live SARS-CoV-2-mNG)” value [8] was 2.6 nM and 0.39 µg/ml and the “Neutralization EC50” value [6] was 0.39 µg/mL.

B12: anti-SARS-CoV2-14 IgA2m2 (antibody)
VH: B11 VH
VL: B11 VL
chain: not shown
B12 gave an EC50 [1] of 14 nM.

B13: anti-SARS-CoV2-14 IgG (full lambda light chain) (antibody, V domains shown)
VH: B11 VH
VL: B11 VL
In the case of B13, the “Neutralization EC50 (PRNT)” value [2] is reported as 0.51 µg/mL, the “Neutralization EC50 (PRNT)” value [3] is reported as 0.32 µg/mL and the “Neutralization EC50” value [4] is reported as 0.6 µg/mL.

B14: anti-SARS-CoV2-14 IgA1 (antibody)
VH: B11 VH
VL: B11 VL
chain: not shown
Work on B14 yielded an EC50 [1] of 1.9 nM.

B15: anti-SARS-CoV2-14 IgM (lambda-VL-kappa-CL hybrid light chain) (antibody)
heavy: B3 heavy
VL: B11 VL
chain: not shown
With B15 the “EC50 (read off the curve)” value [9] was ~0.7 nM, the “EC50 (neutralization of live SARS-CoV-2-mNG)” value [8] was 0.01 µg/ml and 0.011 nM and the “Fold change of neutralization EC50 in nM (IgM-14 against IgG-14)” value [8] was 236 fold. The “Fold change of neutralization EC50 in µg/ml (IgM-14 against IgG-14)” value [8] was 39 fold, the “Neutralization EC50” value [6] was 0.015 µg/mL and the EC50 [1] was 0.7 nM. For the same binder, the “fold change of KD (IgM-14 against IgG-14)” value [10] was 13.6 fold, the “fold change of Kdis (IgM-14 against IgG-14)” value [10] was 0.26 fold and the “fold change of Kon (IgM-14 against IgG-14)” value [10] was 3.59 fold. For the same binder, the EC50 [11] was 0.046 nM, the “fold change of ELISA EC50 (IgM-14 against IgG-14)” value [11] was 135 fold and the Kd [12] was 0.102 nM. For the same binder, the koff [12] was 0.00034 s⁻¹ and the kon [12] was 3.35e+06 M⁻¹ s⁻¹.
